According to the domain aggregation screens of Martell et al. (2025):

test: soluble fraction after stress (log2 fold change); higher = more stays soluble; pooled small domains, quantitative proteomics; conditions: stress: 50 degC
In short: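 Quantitative proteomics served as the high-throughput read-out for pooled custom libraries of small protein domains. Each was stressed at 50°C. Aggregation propensity is expressed as the base-two log fold change in soluble protein after stress. A higher value means a larger share of the protein remains in solution.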

Going from “HMKALYNLDYEKPLSGSYYTETTARAAVPTDIRKLGLIITYKTDATTNITEQFVGSSISAWTTSGNWKSLG” to “HMVSVPDIGEKLPDFTGTPKRLLTPLLNKNDVNIIIKGDGWVVSQKPPAGTPVTKGMTIEFTL”, the “soluble fraction (log2)” value rises from -0.424 to -0.208.

Compared with “HMKHTVSVDRLQPGVFVSLGGLSWLDHPFLLNRFRLTDHDQIKVLRSLGVKEIEWDPTRSTAQPLPE”, “HMVNYKEILRLAHEGYSQRQIATNIGNSRNTVSEVLDAAKAANIAWPPEETVTNEQLGAILFPNRH” is higher in “soluble fraction (log2)” value: -0.437 for the first, 0.204 for the second.

Compared with “HMSRIDRKGLTSQIVNHLSKNPGKNFTLKQFFRNLKLNTHPLKMLAVDVLNKLLDTNFITRNEDGEFFLKA”, “HMAKINFTSDAIDIGMVTRNDIEMLSFYQNVLGLTKDMEIPFPGLGVVNKLSFGSGFIKILVL” is lower in “soluble fraction (log2)” value: 0.337 for the first, -0.0122 for the second.

Compared with “HMNQTEKSKITHNELLKAAHSLFIEQGFNHTTITDIVTRAGYSTGIFYKHYKTKTDILVELWTNYIE”, “HMVGNYYDILGVPETATQDAIKKAFRSLAQQHHPDKNPDDPGAEAMFKKVSEAYQVLSDPDKRQTYDASL” is higher in “soluble fraction (log2)” value: -2.31 for the first, 0.00894 for the second.

“HMGIGSTLTDGVRVYASDDEIVVNAPAESDVRIFNAGGAQLYAGRVADVRVAVAKGLYVVTVDGRSTKITV” and “HMSFDTFKKVFSNLVEKSGYSDAEIARRLGVNRSTISRWKSGEQSPPLPKVKEIANFFGVSPMVFVD” are within 0.2 log units of each other in “soluble fraction (log2)” value: 0.00295 for the first, 0.0554 for the second.

Compared with “HMVAQQINDFRSERDASTGTLKRPLFDTLRDVISSRAQAYVSATGKPVTVEDLDRIYQAVEAEAKQAL”, “HMGFEALRSRHRITAREMEVLQHMLAGRSNAEIGHTLGLSERTVKTHITSIFNKLGVDSRAQLGYMLK” is lower in “soluble fraction (log2)” value: 0.0781 for the first, -0.498 for the second.

Compared with “HMFSPTKLKEKRESQGLSQSQLASSLGISRASYFNWESGKTKPNQNNLSKLSEILNVDPRYF”, “HMNMEPNWLKWAKQLAALAQNGLTYSDNPYEIERYEHIRRIAAEMMAEGFELDTKTILELFPREKG” is lower in “soluble fraction (log2)” value: 0.355 for the first, -2.05 for the second.

Going from “HMELNEIEFENLKESIIIHLEKESLSPHELVKHIQTIHPDKVTAVIQWMLENGFIKTDAGGQLTLVSK” to “HMDEWFPVNDDYKFMVGDEVRTPDGLVKVVATHNDSATFYGKIITPIHDDVLKGETYEYRSYEAQVLA”, the “soluble fraction (log2)” value falls from 0.135 to -0.425.

First: HMRNSSLQTDLELRAYVIDGLNHFWTPEEIAGRWSLAHPDRPVSFATIYRHIKRKLLPGIEPKTHLRRRGK
Second: HMGQLVVHQIKGEASRLDKFLVVNIPKYSRSVWREMINNGSVQVNGRVVKPHLLVKEGDIITWSS
The “soluble fraction (log2)” value of the first is lower: -2.55 for the first, -0.383 for the second.

“HMAEVGDFTLAELIKVLFNEAGVLKAPVELRNDNTGGLQYRVGAYTDSETGWETIASIADLKGA” and “HMSNENIDQDELQAIIQKVLASNQDAVAKYKAGKTAVIGFLIGQVMRQLNKKIDVALAKKTLLVFLEK” are within 0.2 log units of each other in “soluble fraction (log2)” value: -0.436 for the first, -0.396 for the second.

Going from “HMLKQLGRQEGRQEGAVDALRTVLALQIEQRFGPLDPTVQALIVAADIDALQRALSRVAVVSDLGAVFPP” to “HMDFMNSEIKKIVEDLKLTLQSLNYTKNEIKSILPVINKETDNLIKKEKYASFENLLRLAMNHLDNN”, the “soluble fraction (log2)” value falls from -0.238 to -0.462.

Compared with “HMKTFQSYQTTSMSNVNLRKRANGTSTILKRIKVGDTVTVVGKSGNYYQIQFDGKEGYALIKYIDGTDSGA”, “HMSESAGKAFDLLFYLAKAGETVSLARLSRETGMNKATALRYLNVLESKGVVERSKLGWTLGLSLFELGSK” is lower in “soluble fraction (log2)” value: -0.247 for the first, -2.05 for the second.

Compared with “HMSILEIFGRNVQKYRKEQRLSQEKLAEYAGLHRTYIGMIERAEKNITLVNIEKIAKALNINLTKLLE”, “HMVKNVVIPDVSNKAPVDASNQLTDLGFEVVTEYKYIASDTIEEGKVVKTSPEIGSKRKYGQKITLYISSG” is higher in “soluble fraction (log2)” value: -3.14 for the first, -0.56 for the second.

“HMDYKSTLQELVQTVKKSVTYEVIDEEGPSHNKTFTSIVKIDGIVMGKGTAGSKKASEQEAARDALSKR” and “HMSEITQTLSMIGKEVTLEIPDEKDKTKTTEVKGIVTEASFKDGTGKVKVNGEYYSIAYITSIRDT” are within 0.2 log units of each other in “soluble fraction (log2)” value: 0.271 for the first, 0.335 for the second.

“HMVSEASELTDTINKIGSLAQALVGANKLSKTDLVGIIKKYHTSANYNSITDIGVAKNILAELEAKN” and “HMSKKQEQALQSREKLLDAATALFAEHGYRDTSVQAIGEKAGVSRGSIFWHFGSKEGLLWAVVERAFTA” are within 0.2 log units of each other in “soluble fraction (log2)” value: 0.0739 for the first, 0.265 for the second.
